# Source: paper PMC3075217
# Biological target: rat collagen type I (rat) (UniProt P02454)
# Assay: ELISA; rat collagen type I coated on a 96-well plate; rPnxIIIA variants applied at 10 μg/ml; detected with anti-6x Histidine tag monoclonal antibody, read as A620
# Chain of UniProt P02454 (P02454 152-1207, chain 1 of 2): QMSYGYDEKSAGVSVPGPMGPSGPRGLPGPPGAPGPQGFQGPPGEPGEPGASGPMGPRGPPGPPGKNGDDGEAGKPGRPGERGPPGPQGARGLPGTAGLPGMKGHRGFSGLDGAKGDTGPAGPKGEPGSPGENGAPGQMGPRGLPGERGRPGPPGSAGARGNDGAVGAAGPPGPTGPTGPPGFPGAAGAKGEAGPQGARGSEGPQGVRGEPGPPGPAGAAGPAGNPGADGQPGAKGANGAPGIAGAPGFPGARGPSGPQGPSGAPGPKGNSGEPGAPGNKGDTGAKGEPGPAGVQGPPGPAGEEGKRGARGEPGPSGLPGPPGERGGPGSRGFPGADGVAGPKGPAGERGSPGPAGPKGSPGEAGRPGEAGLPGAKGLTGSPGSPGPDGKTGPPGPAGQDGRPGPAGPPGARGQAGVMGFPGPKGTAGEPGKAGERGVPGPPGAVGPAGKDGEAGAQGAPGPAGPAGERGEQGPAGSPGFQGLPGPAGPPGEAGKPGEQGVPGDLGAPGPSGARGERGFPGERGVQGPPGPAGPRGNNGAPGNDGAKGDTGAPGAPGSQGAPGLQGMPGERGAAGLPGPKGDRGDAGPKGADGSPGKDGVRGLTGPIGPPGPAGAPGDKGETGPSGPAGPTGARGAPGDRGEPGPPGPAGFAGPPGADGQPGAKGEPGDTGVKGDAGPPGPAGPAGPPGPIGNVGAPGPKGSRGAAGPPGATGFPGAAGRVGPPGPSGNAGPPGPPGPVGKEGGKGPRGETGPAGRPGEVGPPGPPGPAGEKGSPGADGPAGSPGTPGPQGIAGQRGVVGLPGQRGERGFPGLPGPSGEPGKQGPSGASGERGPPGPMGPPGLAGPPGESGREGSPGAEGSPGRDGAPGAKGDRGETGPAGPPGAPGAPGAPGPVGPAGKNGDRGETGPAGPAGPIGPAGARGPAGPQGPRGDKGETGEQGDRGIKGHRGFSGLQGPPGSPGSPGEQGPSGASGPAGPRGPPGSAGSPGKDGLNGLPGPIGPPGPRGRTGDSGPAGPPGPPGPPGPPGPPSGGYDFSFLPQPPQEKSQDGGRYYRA
# Chain of UniProt P02454 (P02466 86-1125, chain 2 of 2, further chain): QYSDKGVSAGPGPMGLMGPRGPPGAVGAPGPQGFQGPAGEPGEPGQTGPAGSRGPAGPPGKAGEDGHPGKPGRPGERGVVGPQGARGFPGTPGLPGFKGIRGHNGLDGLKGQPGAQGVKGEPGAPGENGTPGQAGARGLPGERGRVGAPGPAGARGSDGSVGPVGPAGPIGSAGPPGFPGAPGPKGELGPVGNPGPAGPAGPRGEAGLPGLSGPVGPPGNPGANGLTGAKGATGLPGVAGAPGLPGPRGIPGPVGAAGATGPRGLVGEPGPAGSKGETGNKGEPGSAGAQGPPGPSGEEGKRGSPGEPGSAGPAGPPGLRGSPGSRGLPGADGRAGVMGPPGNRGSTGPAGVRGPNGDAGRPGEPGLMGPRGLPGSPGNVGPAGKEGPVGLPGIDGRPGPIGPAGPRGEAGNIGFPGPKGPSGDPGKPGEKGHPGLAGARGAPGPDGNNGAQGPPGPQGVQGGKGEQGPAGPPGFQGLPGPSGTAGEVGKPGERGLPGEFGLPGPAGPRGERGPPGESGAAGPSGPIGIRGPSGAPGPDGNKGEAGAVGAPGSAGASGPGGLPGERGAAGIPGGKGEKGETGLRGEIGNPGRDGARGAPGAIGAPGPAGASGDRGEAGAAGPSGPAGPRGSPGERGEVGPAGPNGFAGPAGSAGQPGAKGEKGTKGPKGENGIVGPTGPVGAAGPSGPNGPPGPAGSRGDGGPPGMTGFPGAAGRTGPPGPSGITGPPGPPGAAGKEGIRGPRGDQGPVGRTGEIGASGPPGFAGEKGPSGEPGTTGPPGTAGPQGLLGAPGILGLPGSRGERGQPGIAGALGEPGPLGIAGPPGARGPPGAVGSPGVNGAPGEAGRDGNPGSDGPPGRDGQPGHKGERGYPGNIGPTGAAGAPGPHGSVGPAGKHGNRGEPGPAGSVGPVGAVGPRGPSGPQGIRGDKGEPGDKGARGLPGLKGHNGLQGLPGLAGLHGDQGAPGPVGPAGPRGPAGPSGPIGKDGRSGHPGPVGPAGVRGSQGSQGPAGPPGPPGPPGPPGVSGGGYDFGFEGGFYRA
substance,measurement,value
Recombinant PnxIIIA protein (natural protein),A620 at 10 μg/ml,0.55 A620
